From US20230303681A1

Target: mouse TMEM106B (mouse) (UniProt Q80X71)
Experiment: FACS Neuro2a

Going from Negative ctrl #3 (antibody) to Negative ctrl #1 (antibody), the MFI rises from 216 to 220.

In the case of Negative ctrl #2 (antibody), the MFI is reported as 235.
